Source: patent US9981005

Molecular target: Skp1-FBXW7 complex (human FBXW7 residues 263-707 with truncated Skp1) (human) (UniProt P63208)
Test: isothermal titration calorimetry, Skp1-FBXW7, 25 °C

Skp1-FBXW7 complex (human FBXW7 residues 263-707 with truncated Skp1) (human), sequence (chain, as listed by the source limits assumed, chain 1 of 2): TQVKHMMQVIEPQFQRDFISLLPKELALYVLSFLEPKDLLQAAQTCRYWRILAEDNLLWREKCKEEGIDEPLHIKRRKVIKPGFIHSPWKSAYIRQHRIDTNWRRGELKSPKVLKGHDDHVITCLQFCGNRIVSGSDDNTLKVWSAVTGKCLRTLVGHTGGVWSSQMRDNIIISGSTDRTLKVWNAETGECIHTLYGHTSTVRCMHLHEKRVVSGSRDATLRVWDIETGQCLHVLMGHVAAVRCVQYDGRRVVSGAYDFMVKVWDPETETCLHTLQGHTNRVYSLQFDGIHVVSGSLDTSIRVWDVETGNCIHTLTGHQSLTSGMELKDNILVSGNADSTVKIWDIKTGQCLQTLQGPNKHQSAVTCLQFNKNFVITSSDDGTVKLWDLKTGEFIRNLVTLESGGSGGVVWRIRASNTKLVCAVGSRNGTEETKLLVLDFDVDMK
Skp1-FBXW7 complex (human FBXW7 residues 263-707 with truncated Skp1) (human), sequence (P63208 whole entry, chain 2 of 2, the tested form may be a part): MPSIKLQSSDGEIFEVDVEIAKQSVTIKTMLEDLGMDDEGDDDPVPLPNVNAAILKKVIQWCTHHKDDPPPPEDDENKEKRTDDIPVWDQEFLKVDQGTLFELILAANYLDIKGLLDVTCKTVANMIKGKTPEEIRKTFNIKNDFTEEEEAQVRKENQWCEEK

## doubly-phosphorylated test peptide VPPpTPPGpSH
  Kd: 1 µM
